In patent publication US20220251207A1 (JIANGSU ALPHAMAB BIOPHARMACEUTICALS, published 2022):

Tests used:
[1] = molecular target: T1, human CTLA4 expressed on HEK293-CTLA4 cells (human, UniProt P16410 36-223); experiment: competitive flow cytometry; taken as HEK293-CTLA4 cells with CD86-muFc as the blocked ligand, from the order of paragraph 274 and paragraph 275; the panel has no title
T1 construct: whole, on cells; also called human CTLA4 on the cell surface

[2] = molecular target: CTLA4-muFc (fusion protein of human CTLA4 and mouse Fc) (human); experiment: competitive flow cytometry; taken as CTLA4-muFc with human CD86 on HEK293-CD86 cells as the blocked ligand, from the order of paragraph 274 and paragraph 275; the panel has no title
[3] = molecular target: T1, human CTLA4 expressed on HEK293-CTLA4 …; experiment: flow cytometry on HEK293-CTLA4 cells, MFI, four-parameter fit
Experimental: 3% of BSA/PBS was used to adjust the density of HEK293-CTLA4 cells to 3×10⁶ cells/ml.
Then, APC-goat anti-mouse IgG at a dilution of 1:100 was used, and placed on ice for 30 min for reaction. After that, they were washed with 1% of BSA/PBS and resuspended, and then detected on a FACS machine (using a Guava EasyCyte instrument).
The flow cytometry results were analyzed by Guava 5.3.1 to calculate the mean fluorescence intensity (MFI) of the detected samples. The log values of the obtained MFI versus the concentrations of the samples were calculated, and the experimental results were fit with four parameters using GraphPad Prism 6.0.

B1: KN044 (VHH)
VHH: QVQLVESGGGLVQPGGSLRLSCAASGYIYSAYCMGWFRQAPGKGLEGVAAIYIGGGSTYYADSVKGRFTISRDNSKNTLYLQMNSLRAEDTAVYYCAADVIPTETCLGGSWSGPFGYWGQGTLVTVSS
- IC50 (read off the curve) [1]: ~8 nM
- IC50 (read off the curve) [2]: ~10 nM
- EC50 [3]: 2.01 nM
